In patent publication US20130287781A1 (GlaxoSmithKline, published 2013):

T1: native human Nogo-A of IMR32 neuroblastoma cells (intracellular) (human, UniProt Q9NQC3 1-1192)
T1 construct: whole, on cells; Detected inside permeabilised, fixed cells (ER-resident), not on the cell surface; also called intracellular Nogo-A; native Nogo-A
T1 sequence (looked up): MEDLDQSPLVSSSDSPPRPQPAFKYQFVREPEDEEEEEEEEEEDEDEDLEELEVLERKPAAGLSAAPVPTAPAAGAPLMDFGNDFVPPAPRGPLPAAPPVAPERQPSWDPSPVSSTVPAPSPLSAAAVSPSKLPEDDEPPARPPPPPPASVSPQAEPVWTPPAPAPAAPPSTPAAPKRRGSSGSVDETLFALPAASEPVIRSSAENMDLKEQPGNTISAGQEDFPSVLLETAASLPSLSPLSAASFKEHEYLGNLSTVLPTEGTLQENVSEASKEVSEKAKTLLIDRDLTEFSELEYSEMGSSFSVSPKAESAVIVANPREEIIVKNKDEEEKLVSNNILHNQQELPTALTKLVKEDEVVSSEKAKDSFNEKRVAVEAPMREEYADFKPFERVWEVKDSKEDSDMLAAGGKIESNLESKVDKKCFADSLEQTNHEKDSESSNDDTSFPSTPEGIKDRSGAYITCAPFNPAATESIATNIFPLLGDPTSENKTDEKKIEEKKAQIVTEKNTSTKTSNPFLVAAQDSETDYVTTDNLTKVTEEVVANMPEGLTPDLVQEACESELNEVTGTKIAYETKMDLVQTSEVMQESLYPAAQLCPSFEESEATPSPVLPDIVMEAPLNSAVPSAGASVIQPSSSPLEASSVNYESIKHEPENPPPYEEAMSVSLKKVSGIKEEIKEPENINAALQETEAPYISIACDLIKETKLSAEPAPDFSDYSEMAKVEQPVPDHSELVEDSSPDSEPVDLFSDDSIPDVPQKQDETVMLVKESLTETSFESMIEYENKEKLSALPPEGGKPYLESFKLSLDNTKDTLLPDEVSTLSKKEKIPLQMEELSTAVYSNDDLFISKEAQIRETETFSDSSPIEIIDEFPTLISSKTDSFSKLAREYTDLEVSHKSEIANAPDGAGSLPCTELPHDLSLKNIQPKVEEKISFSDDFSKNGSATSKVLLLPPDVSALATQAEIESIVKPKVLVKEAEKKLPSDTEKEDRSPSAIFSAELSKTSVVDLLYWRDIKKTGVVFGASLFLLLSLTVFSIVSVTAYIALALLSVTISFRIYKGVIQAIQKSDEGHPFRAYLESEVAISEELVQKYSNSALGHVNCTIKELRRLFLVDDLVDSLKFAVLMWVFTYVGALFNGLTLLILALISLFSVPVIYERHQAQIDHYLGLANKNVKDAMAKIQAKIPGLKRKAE

T2: peptide 6 (biotin-SGSG-TPSPVLPDIVMEAPLN) (human, N-terminal biotin)
T2 peptide: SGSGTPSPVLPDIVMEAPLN

T3: peptide 7 (biotin-SGSG-VLPDIVMEAPLNSAVP) (human, N-terminal biotin)
T3 peptide: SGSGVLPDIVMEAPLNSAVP


Key:
GST-human NOGO-A56 [1] = target: T4, GST-human NOGO-A56 (human); assay: SPR (Biacore) off-rate on NOGO chip, panel of H6FL CDR H3 variants with L13FL
T4 construct: Expressed in E. coli BL21 from pGEX-6P1 and purified on glutathione-sepharose; the GST tag is part of the protein in the assays; also called GST-Nogo-A 5+6; GST Nogo-A 5 + 6
T4 sequence (chain, as listed by the source limits assumed): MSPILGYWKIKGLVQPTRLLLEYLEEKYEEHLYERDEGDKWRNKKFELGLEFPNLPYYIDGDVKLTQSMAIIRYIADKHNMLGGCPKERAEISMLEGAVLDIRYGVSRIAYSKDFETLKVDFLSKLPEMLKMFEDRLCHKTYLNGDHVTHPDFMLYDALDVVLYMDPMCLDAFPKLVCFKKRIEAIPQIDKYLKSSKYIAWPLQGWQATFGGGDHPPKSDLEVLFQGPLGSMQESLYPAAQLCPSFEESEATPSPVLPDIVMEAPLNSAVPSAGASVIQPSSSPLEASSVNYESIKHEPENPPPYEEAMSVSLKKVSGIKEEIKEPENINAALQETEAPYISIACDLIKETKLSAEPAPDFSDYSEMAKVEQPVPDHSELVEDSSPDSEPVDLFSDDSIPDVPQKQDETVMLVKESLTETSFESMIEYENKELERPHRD

GST-human NOGO-A56 [2] = target: T4, GST-human NOGO-A56; assay: direct ELISA on NOGO (GST-human NOGO-A56), CDR H3 variant of H6FL with L13FL, Abs490; coating concentration not given
GST-human NOGO-A56 [3] = target: T4, GST-human NOGO-A56; assay: direct ELISA, human NOGO-A (GST-human NOGO-A56) coated at 1 ug/ml, Abs490
GST-human NOGO-A56 [4] = target: T4, GST-human NOGO-A56; assay: SPR (Biacore), GST-human NOGO-A56 amine-coupled to CM5, antibody flowed over, 25 C
Procedure: (§1) GST-human NOGO-A56 was immobilised to a CM5 chip by primary amine coupling using the Biacore Wizard program designed for targeted immobilisation levels. The CM5 sensor surface was activated by passing a solution of 50 mM N-hydroxy-succinimide (NHS) and 200 mM N-ethyl-N′-dimethylaminopropyl carbonide (EDC). Then GST-human NOGO-A56 in sodium acetate buffer, pH5.0 or pH 4.5, was passed over the chip and immobilised. After immobilisation was complete any still activated esters were blocked by an injection of 1M ethanolamine hydrochloride, pH8.5.
(§2) The anti-NOGO mAbs were diluted down in HBS-EP (10 mM HEPES, pH 7.4, 150 mM NaCl, 3 mM EDTA, and 0.005% P-20 surfactant) for the BIAcore 3000 or HBS-EP+ (10 mM HEPES, pH 7.4, 150 mM NaCl, 3 mM EDTA, and 0.05% P-20 surfactant) in the case of the T100 and binding studies were carried out at range of defined antibody concentrations. All runs were referenced against a blanked sensor surface (one that had been activated and blocked as described earlier but had no addition of ligand). Analysis of binding was carried out using the BIAevaluation kinetic analysis software version 4.1 for the BIAcore 3000 and T100 kinetic analysis software version 1.0. […] Unless otherwise stated, the BIAcore experiments were performed at 25° C.

GST-human NOGO-A56 [5] = target: T4, GST-human NOGO-A56; assay: as above; remark: listed apart in the source
Procedure: as §1, §2

GST-human NOGO-A56 [6] = target: T4, GST-human NOGO-A56; assay: SPR (Biacore), GST-human NOGO-A56 amine-coupled to CM5, antibody flowed over, 37 C
GST-human NOGO-A56 [7] = target: T4, GST-human NOGO-A56; assay: direct ELISA, GST-human NOGO-A56 coated at 1.0 mcg/ml, purified antibody, OD490
Procedure: (§3) Wells were rinsed once with TBS+0.05% Tween (TBST) then incubated with 2% BSA in TBST to block non-specific binding sites at room temperature for 1 hour. Antibodies were diluted in TBST+2% BSA to 10 μg/ml and ½ dilutions made from this. Antibodies were added to wells in duplicate and incubated at room temperature for 1 hour. […] The wells were washed three times with TBST and then incubated with 100 μl OPD peroxidase substrate (Sigma) per well for 10 minutes. The colour reaction was stopped by the addition of 25 μl concentrated H₂SO₄. Optical density at 490 nm was measured using a plate reader. Background values read from wells with no antibody were subtracted.

GST-human NOGO-A56 [8] = target: T4, GST-human NOGO-A56; assay: direct ELISA, GST-Nogo-A 5+6 coated at 1.0 mcg/ml, anti-human IgG-HRP, Abs490
Procedure: as §3

[9] = target: T1, native human Nogo-A of IMR32 …; assay: flow cytometry on permeabilised, fixed IMR32 cells (intracellular Nogo-A), PE anti-human IgG, MFI
Procedure: In the second assay, the ability of the humanised antibodies to bind native Nogo-A was assessed using a human neuroblastoma cell line—IMR32. This cell line is characterised by high intracellular/low cell surface levels of Nogo-A protein. In an attempt to increase the binding signal, the assay was set-up to detect intracellular Nogo-A (ER-resident). IMR32 cells were permeabilised and fixed prior to staining with the anti-Nogo-A humanised antibodies. Binding of the antibodies to Nogo-A was detected using an anti-human IgG-PE labelled secondary (Sigma, #P8047).

GST-human NOGO-A56 [10] = target: T4, GST-human NOGO-A56; assay: SPR (Biacore T100), antigen amine-coupled to CM5, antibody 0.125-8 nM; mean of six runs in duplicate (SD in brackets)
Source text: In the first approach, the recombinant Nogo-A was coupled to the surface of the chip and anti-Nogo-A antibodies passed over this surface. In the second approach, Protein A was used to capture the antibody onto the surface of the chip over which the recombinant GST-human Nogo-A56 was passed.
The antigen was bound to the CM5 chip by primary amine coupling. […] The values show the mean and standard deviation (in brackets) of six independent runs carried out in duplicate. Each completed data set was analysed independently prior to the calculation of mean and standard deviation.

GST-human NOGO-A56 [11] = target: T4, GST-human NOGO-A56; assay: competition ELISA on coated GST-Nogo-A 5+6; competitor 2A10 pre-mixed, bound 2A10 detected with anti-mouse IgG-HRP
GST-human NOGO-A56 [12] = target: T4, GST-human NOGO-A56; assay: SPR (Biacore T100), reverse format: antibody captured by Protein A, GST Nogo-A 5+6 0.125-8 nM flowed over; mean (SD in brackets)
Source text: Protein A was immobilised to approximately 4000RUs by primary amine and used to capture 200-300RUs of the sample antibodies. […] The values show the mean and standard deviation (in brackets) of three independent runs in duplicate. Each data set was independently analysed prior to the calculation of the mean and standard deviation.

GST-human NOGO-A56 [13] = target: T4, GST-human NOGO-A56; assay: reverse format ELISA: antibody captured on anti-human IgG, GST-Nogo-A 5+6 detected with anti-GST-HRP; the x axis is the antibody concentration
[14] = target: T5, Rat NOGO (A56) plus GST tag (rat); assay: direct ELISA on GST-NOGO-A56 from rat, Abs490
T5 construct: also called GST-NOGO-A56 from rat
T5 sequence (chain, as listed by the source limits assumed): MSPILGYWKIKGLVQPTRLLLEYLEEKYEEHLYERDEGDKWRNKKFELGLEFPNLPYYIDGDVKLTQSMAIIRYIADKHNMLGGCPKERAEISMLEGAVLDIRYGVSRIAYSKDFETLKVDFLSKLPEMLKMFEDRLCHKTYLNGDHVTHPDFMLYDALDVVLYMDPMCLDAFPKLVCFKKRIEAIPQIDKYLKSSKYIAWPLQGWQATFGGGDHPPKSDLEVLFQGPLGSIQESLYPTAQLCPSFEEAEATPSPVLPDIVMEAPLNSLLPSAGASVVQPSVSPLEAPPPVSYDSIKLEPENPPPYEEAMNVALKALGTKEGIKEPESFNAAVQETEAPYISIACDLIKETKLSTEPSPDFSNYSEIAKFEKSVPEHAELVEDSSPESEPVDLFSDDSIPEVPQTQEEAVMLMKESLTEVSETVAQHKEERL

[15] = target: T6, Marmoset NOGO (A56) plus GST tag (marmoset); assay: direct ELISA on GST-NOGO-A56 from marmoset, Abs490
T6 construct: also called GST-NOGO-A56 from marmoset
T6 sequence (chain, as listed by the source limits assumed): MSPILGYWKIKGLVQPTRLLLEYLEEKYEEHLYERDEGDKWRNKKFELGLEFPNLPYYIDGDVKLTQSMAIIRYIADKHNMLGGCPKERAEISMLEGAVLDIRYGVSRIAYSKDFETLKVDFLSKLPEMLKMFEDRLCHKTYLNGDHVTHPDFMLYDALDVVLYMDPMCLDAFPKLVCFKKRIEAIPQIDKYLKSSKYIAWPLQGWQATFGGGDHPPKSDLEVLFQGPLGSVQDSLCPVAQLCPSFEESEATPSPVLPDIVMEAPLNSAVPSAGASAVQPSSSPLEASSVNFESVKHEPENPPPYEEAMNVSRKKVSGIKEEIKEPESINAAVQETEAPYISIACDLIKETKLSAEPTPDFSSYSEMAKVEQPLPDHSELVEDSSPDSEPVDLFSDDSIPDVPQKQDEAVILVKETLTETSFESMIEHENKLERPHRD

[16] = target: T7, Cynomolgus monkey NOGO (A56) plus GST tag (cynomolgus monkey); assay: direct ELISA on GST-NOGO-A56 from cynomolgus, Abs490
T7 construct: also called cynomolgus Nogo-A; GST-NOGO-A56 from cynomolgus
T7 sequence (chain, as listed by the source limits assumed): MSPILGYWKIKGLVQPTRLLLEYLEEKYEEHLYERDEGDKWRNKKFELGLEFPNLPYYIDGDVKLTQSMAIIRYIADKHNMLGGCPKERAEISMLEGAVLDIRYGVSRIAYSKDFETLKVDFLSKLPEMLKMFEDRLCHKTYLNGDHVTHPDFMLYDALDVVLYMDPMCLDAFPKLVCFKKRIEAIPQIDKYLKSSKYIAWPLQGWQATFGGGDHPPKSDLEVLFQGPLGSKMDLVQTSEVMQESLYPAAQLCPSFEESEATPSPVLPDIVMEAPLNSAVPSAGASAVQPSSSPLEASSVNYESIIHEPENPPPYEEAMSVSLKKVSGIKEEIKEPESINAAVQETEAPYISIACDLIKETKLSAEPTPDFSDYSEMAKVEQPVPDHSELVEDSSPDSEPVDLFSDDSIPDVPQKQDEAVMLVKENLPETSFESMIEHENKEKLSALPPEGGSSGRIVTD

[17] = target: T8, Squirrel monkey NOGO (A56) plus GST tag (squirrel monkey); assay: direct ELISA on GST-NOGO-A56 from squirrel monkey, Abs490
T8 construct: also called GST-NOGO-A56 from squirrel monkey
T8 sequence (chain, as listed by the source limits assumed): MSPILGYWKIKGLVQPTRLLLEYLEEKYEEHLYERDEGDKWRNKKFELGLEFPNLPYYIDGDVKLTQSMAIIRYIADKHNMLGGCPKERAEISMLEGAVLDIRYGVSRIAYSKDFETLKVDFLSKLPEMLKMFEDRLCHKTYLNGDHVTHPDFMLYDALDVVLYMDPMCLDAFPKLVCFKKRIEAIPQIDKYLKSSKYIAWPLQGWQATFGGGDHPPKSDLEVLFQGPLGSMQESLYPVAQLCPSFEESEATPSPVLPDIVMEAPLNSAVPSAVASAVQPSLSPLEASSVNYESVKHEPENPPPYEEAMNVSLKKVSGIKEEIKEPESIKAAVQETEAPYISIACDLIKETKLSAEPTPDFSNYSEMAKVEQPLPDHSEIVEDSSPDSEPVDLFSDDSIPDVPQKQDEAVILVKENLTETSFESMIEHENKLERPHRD

GST-human NOGO-A56 [18] = target: T4, GST-human NOGO-A56; assay: direct ELISA, GST-human NOGO-A56 coated at 1.0 mcg/ml, purified antibody, OD490; remark: listed apart in the source
GST-human NOGO-A56 [19] = target: T4, GST-human NOGO-A56; assay: SPR (Biacore) off-rate ranking on GST-human NOGO-A56 chip, one experiment
Procedure: as §1
The GST-human NOGO-A56 chip was prepared as for kinetic analysis. Cell supernatants where taken directly from transient transfections of CHO-K1 cells. These were passed directly over the sensor surface and the interaction measured. A mock transfected cell supernatant was used for double referencing to remove any artefacts due to the tissue culture media. All runs were referenced against a blanked sensor surface (one that had been activated and blocked as described earlier but had no addition of ligand). Analysis of binding was carried out using the BIAevaluation kinetic analysis software version 4.1.

GST-human NOGO-A56 [20] = target: T4, GST-human NOGO-A56; assay: SPR (Biacore), GST-human NOGO-A56 amine-coupled to CM5, antibody flowed over, 25 C; remark: listed apart in the source
Procedure: as §1, §2

[21] = target: T2, peptide 6 (biotin-SGSG-TPSPVLPDIVMEAPLN); assay: peptide ELISA: biotinylated 16-mer peptide on streptavidin, antibody at 5 ug/ml, kappa-chain peroxidase conjugate, Abs490
Procedure: (§4) Streptavidin at 5 μg/ml in sterile water was coated onto Nunc immunosorp plates (100 μl per well) at 37° C. overnight. The plates were rinsed 3 times with PBS containing 0.05% Tween (PBST) then blocked with 3% BSA in PBST at 4° C. overnight. The plates were washed 3 times with PBST. Peptides were then added to the wells at a concentration of approximately 10 μg/ml (diluted in 3% BSA in PBST) and incubated at room temperature for 1 hour. The plates were washed 3 times with PBST then incubated for 1 hour with anti-NOGO antibodies diluted to 5 μg/ml in 3% BSA in PBST. […] The plates were washed 3 times with PBST and then incubated with 100 μl OPD peroxidase substrate (Sigma) per well for 10 minutes. The colour reaction was stopped by the addition of 50 μl 3 molar H₂SO₄. Absorbance at 490 nm was measured using a plate reader.

[22] = target: T3, peptide 7 (biotin-SGSG-VLPDIVMEAPLNSAVP); assay: as above
Procedure: as §4

Binder | koff (GST-human NOGO-A56 [1]) | EC50 (read off the curve) (GST-human NOGO-A56 [3]) | Kd (GST-human NOGO-A56 [4]) | koff (GST-human NOGO-A56 [4]) | kon (GST-human NOGO-A56 [4]) | Kd (GST-human NOGO-A56 [5]) | koff (GST-human NOGO-A56 [5]) | kon (GST-human NOGO-A56 [5]) | Kd (GST-human NOGO-A56 [6]) | koff (GST-human NOGO-A56 [6]) | kon (GST-human NOGO-A56 [6]) | EC50 (read off the curve) (GST-human NOGO-A56 [7]) | EC50 (read off the curve) (GST-human NOGO-A56 [8]) | binding result [9] | Kd (GST-human NOGO-A56 [10]) | Kd (GST-human NOGO-A56 [12]) | EC50 (read off the curve) (GST-human NOGO-A56 [13]) | EC50 (read off the curve) (GST-human NOGO-A56 [18]) | further results
H6L13 variant with VH CDR3 WQGY (antibody, human IgG1, kappa, V domains shown, Single point variant of H6FL with L13FL) VH: QVQLVQSGAEVKKPGASVKVSCKASGYTFTSYWMHWVRQAPGQGLEWIGNINPSNGGTNYNEKFKSRATMTRDTSTSTAYMELSSLRSEDTAVYYCELWQGYWGQGTLVTVSS VL: DIVMTQSPLSLPVTLGQPASISCRSSKSLLYKDGKTYLNWFQQRPGQSPQLLIYLMSTRASGVPDRFSGGGSGTDFTLKISRVEAEDVGVYYCQQLVEYPLTFGQGTKLEIKR | 0.0198 s⁻¹ | – | – | – | – | – | – | – | – | – | – | – | – | – | – | – | – | – | EC50 (read off the curve) (GST-human NOGO-A56 [2]): ~0.1 mg/L
H27L16 (antibody, human IgG1, kappa, V domains shown, IgG1 (L235A, G237A) / kappa; CAMPATH-1H signal (1-19) left out; also called H27FL L16FL) VH: QVQLVQSGAEVKKPGASVKVSCKASGYTFTSYWMHWVKQRPGQGLEWIGNINPSNGGTNYNEKFKSKATLTVDKSTSTAYMELSSLRSEDTAVYYCELMQGYWGQGTLVTVSS VL: DIVMTQSPLSNPVTLGQPVSISCRSSKSLLYKDGKTYLNWFLQRPGQSPQLLIYLMSTRASGVPDRFSGGGSGTDFTLKISRVEAEDVGVYYCQQLVEYPLTFGQGTKLEIKR | – | ~0.06 mg/L | 0.194 nM | 0.00121 s⁻¹ | 6.24e+06 M⁻¹ s⁻¹ | 0.38 nM | 0.0015 s⁻¹ | 3.94e+06 M⁻¹ s⁻¹ | 0.426 nM | 0.00306 s⁻¹ | 7.18e+06 M⁻¹ s⁻¹ | ~0.06 mg/L | ~0.04 mg/L | binds | 0.56 nM | 0.31 nM | ~0.1 mg/L | – | IC50 (read off the curve) (GST-human NOGO-A56 [11]): ~5 mg/L
H20L16 (antibody, human IgG1, kappa, V domains shown, IgG1 (L235A, G237A) / kappa; CAMPATH-1H signal (1-19) left out) VH: QVQLVQSGAEVKKPGASVKVSCKASGYTFTSYWMHWVRQAPGQGLEWIGNINPSNGGTNYNEKFKSKATMTRDTSTSTAYMELSSLRSEDTAVYYCELGQGYWGQGTLVTVSS VL: DIVMTQSPLSNPVTLGQPVSISCRSSKSLLYKDGKTYLNWFLQRPGQSPQLLIYLMSTRASGVPDRFSGGGSGTDFTLKISRVEAEDVGVYYCQQLVEYPLTFGQGTKLEIKR | – | – | – | – | – | 1.16 nM | 0.00542 s⁻¹ | 4.69e+06 M⁻¹ s⁻¹ | 1.51 nM | 0.0108 s⁻¹ | 7.17e+06 M⁻¹ s⁻¹ | ~0.09 mg/L | ~0.1 mg/L | binds | 1.8 nM | 0.31 nM | ~0.08 mg/L | ~0.1 mg/L | EC50 (read off the curve) [14]: ~0.08 mg/L; EC50 (read off the curve) [15]: ~0.07 mg/L; EC50 (read off the curve) [16]: ~0.09 mg/L; EC50 (read off the curve) [17]: ~0.05 mg/L
H26L13 (antibody, human IgG1, kappa, V domains shown, H26 FL is H6 FL with G95M (Kabat); IgG1 (L235A, G237A) / kappa; CAMPATH-1H signal (1-19) left out; also called H6(G95M)L13; H6L13 with VH CDR3 MQGY) VH: QVQLVQSGAEVKKPGASVKVSCKASGYTFTSYWMHWVRQAPGQGLEWIGNINPSNGGTNYNEKFKSRATMTRDTSTSTAYMELSSLRSEDTAVYYCELMQGYWGQGTLVTVSS VL: DIVMTQSPLSLPVTLGQPASISCRSSKSLLYKDGKTYLNWFQQRPGQSPQLLIYLMSTRASGVPDRFSGGGSGTDFTLKISRVEAEDVGVYYCQQLVEYPLTFGQGTKLEIKR | 0.00485 s⁻¹ | ~0.03 mg/L | 0.963 nM | 0.00311 s⁻¹ | 3.23e+06 M⁻¹ s⁻¹ | – | – | – | – | – | – | – | – | – | – | – | – | ~0.1 mg/L | koff (GST-human NOGO-A56 [19]): 0.00431 s⁻¹; Kd (GST-human NOGO-A56 [20]): 0.87 nM; koff (GST-human NOGO-A56 [20]): 0.00288 s⁻¹; kon (GST-human NOGO-A56 [20]): 3.45e+06 M⁻¹ s⁻¹
2A10 (murine monoclonal antibody) (antibody, V domains shown, Mouse monoclonal; also called parental antibody 2A10; murine donor antibody 2A10) VH: QVQLQQPGTELVKPGASVKLSCKASGYTFTSYWMHWVKQRPGQGLEWIGNINPSNGGTNYNEKFKSKATLTVDKSSSTAYMQLSSLTSEDSAVYYCELGQGYWGQGTTLTVSS VL: DIVITQDELSNPVTSGESVSISCRSSKSLLYKDGKTYLNWFLQRPGQSPQLLIYLMSTRASGVSDRFSGSGSGTDFTLEISRVKAEDVGVYYCQQLVEYPLTFGAGTKLELK | – | – | – | – | – | – | – | – | – | – | – | – | – | – | – | – | – | – | binding result [21]: binds; binding result [22]: binds
